The experiment has as its target mitoribosomal protein uL12m (human (endogenous in HEK293S GnTI), UniProt P52815 37-198). Description: cryo-EM structure; 150 nM 55S mitoribosomes incubated with 5 uM EF-G1mt and 1 mM GMPPCP at 37 °C for 5 min in HEPES polymix buffer; three classes (I, II, III) from one sample. Particulars: both partners purified.

B1: human mitochondrial elongation factor G1 (natural protein)
chain: not shown
notes: also called EF-G1mt; source: E. coli BL21(DE3) (RIL), purified (Ni-NTA, cation exchange TSKgel SP-5PW)
Consider B1, for which the binding result is on record as “binds”.
